Target: human thrombopoietin receptor (hTPOR, genetic name MPL), on cells (human) (UniProt P40238)
Assay: cell-based or functional assay

## recombinant human thrombopoietin (rhTPO) (from UniProt P40225 22-353) (ligand)
  EC50 of cell proliferation of BaF3/MPL cells: 1.3 ng/mL

From patent US20240010736A1
